Reference: patent publication US20190315845A1 (ANNEXON, published 2019)
Read-outs that look alike come from different tables or passages of the source.

Legend:
[1] = molecular target: T1, human C1q (human, UniProt P02745 23-245; P02746 28-253; P02747 29-245); assay: competition ELISA on plate-bound human C1q against biotinylated mouse M1 antibody (0.02 µg/ml); bound biotin-M1 read as OD450
T1 construct: Purified human C1q protein (plate-coated in ELISA, ligand or analyte in SPR, in human serum in CH50); also called hC1q; complement factor C1q
T1 sequence (P02745 23-245 limits assumed, chain 1 of 3): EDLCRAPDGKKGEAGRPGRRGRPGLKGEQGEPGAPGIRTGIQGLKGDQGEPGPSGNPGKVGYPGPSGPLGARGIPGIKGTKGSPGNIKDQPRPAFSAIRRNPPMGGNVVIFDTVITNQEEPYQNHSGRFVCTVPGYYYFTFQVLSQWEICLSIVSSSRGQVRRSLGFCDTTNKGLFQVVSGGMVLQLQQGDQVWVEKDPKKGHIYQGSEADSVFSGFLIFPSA
T1 sequence (P02746 28-253 limits assumed, chain 2 of 3): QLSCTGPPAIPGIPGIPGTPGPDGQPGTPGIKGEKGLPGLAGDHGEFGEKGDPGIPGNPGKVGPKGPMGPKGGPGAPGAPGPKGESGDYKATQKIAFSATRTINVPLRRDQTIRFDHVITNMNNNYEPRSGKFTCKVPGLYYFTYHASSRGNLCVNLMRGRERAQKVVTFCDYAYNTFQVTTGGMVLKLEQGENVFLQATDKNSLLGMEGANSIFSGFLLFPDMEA
T1 sequence (P02747 29-245 limits assumed, chain 3 of 3): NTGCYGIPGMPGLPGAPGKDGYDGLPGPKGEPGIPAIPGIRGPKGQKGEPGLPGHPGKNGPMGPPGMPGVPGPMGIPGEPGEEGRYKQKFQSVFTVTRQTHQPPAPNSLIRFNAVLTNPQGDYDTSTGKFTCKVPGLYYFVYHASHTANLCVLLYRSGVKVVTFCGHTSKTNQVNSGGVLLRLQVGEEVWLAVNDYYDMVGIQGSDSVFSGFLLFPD
Text: (§1) FIG. 4A, FIG. 4B, FIG. 4C, and FIG. 4D depicts competition ELISA assays for human C1q. A dilution series of purified humanized anti-C1q antibodies were competed against a fixed concentration of biotinylated monoclonal antibody M1 for binding to human C1q. Bound biotinylated M1 antibody was detected using streptavidin-peroxidase conjugate and TMB substrate. FIG. 4A depicts the results with the humanized antibodies VH1/Vκ1, VH1/Vκ2, and VH1/Vκ3. FIG. 4B depicts the results with the humanized antibodies VH1/Vκ4, VH2/Vκ1, VH2/Vκ2, VH2/Vκ3, and VH2/Vκ4. FIG. 4C depicts the results with the humanized antibodies VH3/Vκ1, VH3/Vκ2, VH3/Vκ3, and VH3/Vκ4. FIG. 4D depicts the results with the humanized antibodies VH4/Vκ1, VH4/Vκ2, […], and VH4/Vκ4.
(§2) The binding of humanized M1 variants to human C1q was analyzed by competition ELISA. A three-fold dilution series of test antibody (5 μg/ml to 0.002 μg/ml) was premixed with a constant concentration of biotinylated mouse M1 antibody (0.02 μg/ml, final concentration) before incubating for 1 hour at 37° C. with shaking on plates pre-coated with human C1q at 1.0 μg/ml. The binding of mouse M1 antibody was detected with streptavidin-peroxidase conjugate (Sigma-Aldrich cat. no. 55512) and TMB (3,3′,5,5′-tetramethylbenzidine) substrate (Thermo Scientific cat. no. 34029). The reaction was stopped with 1M HCl, absorbance read at 450 nm on a Dynex Technologies MRX TC II plate reader and the binding curves plotted.

[2] = molecular target: T1, human C1q; assay: competition ELISA, plate-coated human C1q; competitor biotinylated mouse M1 (0.02 µg/ml); IC50 normalised to chimeric M1
Experimental: as §2
The binding curves were used to calculate IC₅₀ values (concentration of test antibody that inhibits labelled competitor binding by 50%) for each antibody normalized to the IC₅₀ of chimeric M1 and antibody yields from NS0 transfectants were also compared (Table 1).

[3] = molecular target: T1, human C1q; assay: competition ELISA on plate-bound human C1q against biotinylated mouse M1 antibody (0.02 µg/ml); bound biotin-M1 read as OD450; remark: listed apart in the source
Text: as §1, §2

[4] = molecular target: T1, human C1q; assay: as above; remark: listed apart in the source
Text: as §1, §2

[5] = molecular target: T1, human C1q; assay: as above; remark: listed apart in the source
Text: as §1, §2

[6] = molecular target: T2, mouse C1q (mouse, UniProt P98086 23-245; P14106 26-253; Q02105 30-246); assay: competition ELISA, plate-coated mouse C1q; competitor biotinylated chimeric M1 (0.03 µg/ml); IC50 normalised to chimeric M1
T2 construct: Purified mouse C1q protein; also called mC1q
T2 sequence (P98086 23-245 limits assumed, chain 1 of 3): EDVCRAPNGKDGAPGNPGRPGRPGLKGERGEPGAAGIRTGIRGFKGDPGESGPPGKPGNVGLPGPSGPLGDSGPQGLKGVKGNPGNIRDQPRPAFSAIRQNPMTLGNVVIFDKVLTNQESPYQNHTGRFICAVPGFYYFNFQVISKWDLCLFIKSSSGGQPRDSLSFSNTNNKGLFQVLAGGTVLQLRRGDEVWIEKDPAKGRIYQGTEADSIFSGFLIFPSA
T2 sequence (P14106 26-253 limits assumed, chain 2 of 3): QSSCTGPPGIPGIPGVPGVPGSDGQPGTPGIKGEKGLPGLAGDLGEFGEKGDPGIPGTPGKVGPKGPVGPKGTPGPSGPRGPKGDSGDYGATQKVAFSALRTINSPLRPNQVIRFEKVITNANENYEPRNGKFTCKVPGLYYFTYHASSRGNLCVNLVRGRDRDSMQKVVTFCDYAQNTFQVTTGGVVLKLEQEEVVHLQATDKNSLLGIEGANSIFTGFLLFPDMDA
T2 sequence (Q02105 30-246 limits assumed, chain 3 of 3): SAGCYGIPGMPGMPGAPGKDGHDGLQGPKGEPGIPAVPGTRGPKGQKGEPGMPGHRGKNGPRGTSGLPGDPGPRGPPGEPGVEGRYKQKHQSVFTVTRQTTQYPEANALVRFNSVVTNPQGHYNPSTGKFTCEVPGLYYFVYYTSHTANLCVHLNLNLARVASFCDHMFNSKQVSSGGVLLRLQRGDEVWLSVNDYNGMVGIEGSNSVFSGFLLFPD
Experimental: (§3) The binding of humanized M1 variants to mouse C1q was analyzed by competition ELISA on four selected antibodies, VH1/Vκ1, VH3/Vκ1, VH3/Vκ4 and VH4/Vκ3. An irrelevant IgG4 (S241P L248E) antibody was also included as a binding control. A three-fold dilution series of test antibody (100 μg/ml to 0.046 μg/ml) was premixed with a constant concentration of biotinylated chimeric M1 antibody (0.03 μg/ml, final concentration) before incubating for 1 hour at 37° C. with shaking on plates pre-coated with mouse C1q at 5.0 μg/ml. The binding of chimeric M1 antibody was detected with streptavidin-peroxidase conjugate (Sigma-Aldrich cat. no. S5512) and TMB substrate (Thermo Scientific cat. no. 34029). The reaction was stopped with 1M HCl, absorbance read at 450 nm on a Dynex Technologies MRX TC II plate reader and the binding curves plotted.
(§4) The binding curves were used to calculate IC₅₀ values for each antibody normalized to the IC₅₀ of chimeric M1 (Table 2).

[7] = molecular target: T2, mouse C1q; assay: competition ELISA on plate-bound mouse C1q against biotinylated chimeric M1 antibody (0.03 µg/ml); bound biotin-chimeric M1 read as OD450
Experimental: as §3, §4

[8] = molecular target: rat C1q (rat, UniProt P31720 23-245; P31721 26-253; P31722 29-245); assay: cell-based or functional assay
rat C1q, sequence (P31720 23-245 limits assumed, chain 1 of 3): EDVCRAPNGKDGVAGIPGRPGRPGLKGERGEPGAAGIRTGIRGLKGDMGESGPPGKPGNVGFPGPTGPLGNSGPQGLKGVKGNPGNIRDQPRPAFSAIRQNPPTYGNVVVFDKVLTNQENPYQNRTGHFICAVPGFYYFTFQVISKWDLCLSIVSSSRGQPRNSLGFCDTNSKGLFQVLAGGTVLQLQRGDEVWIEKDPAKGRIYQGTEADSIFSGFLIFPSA
rat C1q, sequence (P31721 26-253 limits assumed, chain 2 of 3): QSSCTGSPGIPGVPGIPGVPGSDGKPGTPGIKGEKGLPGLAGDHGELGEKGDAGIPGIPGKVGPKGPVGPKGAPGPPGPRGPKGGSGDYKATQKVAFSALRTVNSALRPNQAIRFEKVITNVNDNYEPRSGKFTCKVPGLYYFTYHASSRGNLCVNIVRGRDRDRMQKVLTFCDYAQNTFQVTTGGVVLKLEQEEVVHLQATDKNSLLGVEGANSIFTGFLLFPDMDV
rat C1q, sequence (P31722 29-245 limits assumed, chain 3 of 3): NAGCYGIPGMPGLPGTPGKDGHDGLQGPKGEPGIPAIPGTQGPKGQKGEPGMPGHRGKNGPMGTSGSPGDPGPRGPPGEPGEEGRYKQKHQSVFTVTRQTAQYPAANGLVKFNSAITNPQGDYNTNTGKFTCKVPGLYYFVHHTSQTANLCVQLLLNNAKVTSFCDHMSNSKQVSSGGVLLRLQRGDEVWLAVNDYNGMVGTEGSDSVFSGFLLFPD

[9] = molecular target: T1, human C1q; assay: cell-based or functional assay

B1: humanized anti-C1q antibody VH2/Vκ2 (antibody, human IgG4)
heavy: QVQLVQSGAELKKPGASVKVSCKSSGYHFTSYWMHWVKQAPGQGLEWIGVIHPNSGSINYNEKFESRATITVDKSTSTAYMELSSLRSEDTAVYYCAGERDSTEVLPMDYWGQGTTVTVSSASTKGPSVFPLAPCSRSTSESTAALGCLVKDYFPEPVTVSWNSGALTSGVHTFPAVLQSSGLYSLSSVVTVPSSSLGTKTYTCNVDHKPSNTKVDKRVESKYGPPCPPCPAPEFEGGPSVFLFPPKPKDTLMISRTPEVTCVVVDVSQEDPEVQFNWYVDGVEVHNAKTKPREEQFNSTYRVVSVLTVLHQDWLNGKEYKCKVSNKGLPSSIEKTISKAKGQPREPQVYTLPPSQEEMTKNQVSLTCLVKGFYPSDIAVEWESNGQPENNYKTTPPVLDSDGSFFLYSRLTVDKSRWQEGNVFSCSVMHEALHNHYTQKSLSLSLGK
light: DVQITQSPSSLSASLGERATINCRASKSINKYLAWYQQKPGKANKLLIYSGSTLQSGIPARFSGSGSGTDFTLTISSLEPEDFAMYYCQQHNEYPLTFGQGTKLEIK
notes: Full-length human IgG4 (S241P L248E) / human kappa, expressed in NS0, Protein A purified; not shown: human kappa light chain constant region
- IC50 (read off the curve) [1]: ~0.3 µg/mL
- Relative IC50 [2]: 1.12 ratio to chimeric M1

B2: humanized anti-C1q antibody VH4/Vκ2 (antibody, human IgG4)
heavy: not shown
light: DVQITQSPSSLSASLGERATINCRASKSINKYLAWYQQKPGKANKLLIYSGSTLQSGIPARFSGSGSGTDFTLTISSLEPEDFAMYYCQQHNEYPLTFGQGTKLEIK
notes: as for B1
- Relative IC50 [2]: 0.84 ratio to chimeric M1
- IC50 (read off the curve) [3]: ~0.2 µg/mL

B3: humanized anti-C1q antibody VH2/Vκ3 (antibody, human IgG4)
heavy: not shown
light: DVQITQSPSSLSASLGERATINCRASKSINKYLAWYQQKPGKAPKLLIYSGSTLQSGIPARFSGSGSGTDFTLTISSLEPEDFAMYYCQQHNEYPLTFGQGTKLEIK
notes: as for B1
- IC50 (read off the curve) [1]: ~0.2 µg/mL
- Relative IC50 [2]: 0.75 ratio to chimeric M1

B4: humanized anti-C1q antibody VH3/Vκ2 (antibody, human IgG4)
heavy: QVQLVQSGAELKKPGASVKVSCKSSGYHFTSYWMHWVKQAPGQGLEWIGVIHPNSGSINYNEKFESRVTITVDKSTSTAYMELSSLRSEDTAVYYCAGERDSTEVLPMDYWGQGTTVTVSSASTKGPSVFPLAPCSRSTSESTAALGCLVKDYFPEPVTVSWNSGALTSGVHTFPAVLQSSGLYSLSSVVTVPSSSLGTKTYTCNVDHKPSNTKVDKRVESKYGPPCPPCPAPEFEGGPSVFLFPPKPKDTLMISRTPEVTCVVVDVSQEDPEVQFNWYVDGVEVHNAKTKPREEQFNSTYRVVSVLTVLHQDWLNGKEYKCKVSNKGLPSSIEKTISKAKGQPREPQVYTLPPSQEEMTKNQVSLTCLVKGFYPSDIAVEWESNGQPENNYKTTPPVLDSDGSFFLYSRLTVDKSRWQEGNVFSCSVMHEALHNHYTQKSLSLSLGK
light: DVQITQSPSSLSASLGERATINCRASKSINKYLAWYQQKPGKANKLLIYSGSTLQSGIPARFSGSGSGTDFTLTISSLEPEDFAMYYCQQHNEYPLTFGQGTKLEIK
notes: as for B1
- Relative IC50 [2]: 0.82 ratio to chimeric M1
- IC50 (read off the curve) [4]: ~0.3 µg/mL

B5: humanized anti-C1q antibody VH1/Vκ4 (antibody, human IgG4)
heavy: not shown
light: DIQLTQSPSSLSASLGERATINCRASKSINKYLAWYQQKPGKAPKLLIYSGSTLQSGIPARFSGSGSGTDFTLTISSLEPEDFAMYYCQQHNEYPLTFGQGTKLEIK
notes: as for B1
- IC50 (read off the curve) [1]: ~0.2 µg/mL
- Relative IC50 [2]: 0.8 ratio to chimeric M1

B6: humanized anti-C1q antibody VH3/Vκ1 (antibody, human IgG4)
heavy: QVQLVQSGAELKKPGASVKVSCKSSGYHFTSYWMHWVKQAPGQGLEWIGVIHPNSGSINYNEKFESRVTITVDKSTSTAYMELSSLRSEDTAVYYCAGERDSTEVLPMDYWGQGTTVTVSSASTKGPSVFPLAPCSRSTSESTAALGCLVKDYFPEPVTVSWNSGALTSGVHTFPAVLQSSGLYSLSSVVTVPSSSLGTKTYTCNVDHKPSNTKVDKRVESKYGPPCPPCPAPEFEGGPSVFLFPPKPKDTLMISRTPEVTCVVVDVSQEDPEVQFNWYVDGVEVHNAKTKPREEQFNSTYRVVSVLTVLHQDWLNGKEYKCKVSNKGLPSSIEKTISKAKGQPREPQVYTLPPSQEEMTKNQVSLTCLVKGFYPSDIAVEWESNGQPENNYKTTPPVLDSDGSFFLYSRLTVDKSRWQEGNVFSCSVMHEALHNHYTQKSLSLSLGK
light: DVQITQSPSYLAASLGERATINCRASKSINKYLAWYQQKPGKTNKLLIYSGSTLQSGIPARFSGSGSGTDFTLTISSLEPEDFAMYYCQQHNEYPLTFGQGTKLEIK
notes: as for B1
- Relative IC50 [2]: 0.65 ratio to chimeric M1
- IC50 (read off the curve) [4]: ~0.2 µg/mL

B7: humanized anti-C1q antibody VH1/Vκ2 (antibody, human IgG4)
heavy: not shown
light: DVQITQSPSSLSASLGERATINCRASKSINKYLAWYQQKPGKANKLLIYSGSTLQSGIPARFSGSGSGTDFTLTISSLEPEDFAMYYCQQHNEYPLTFGQGTKLEIK
notes: as for B1
- IC50 (read off the curve) [5]: ~0.3 µg/mL
- Relative IC50 [2]: 0.84 ratio to chimeric M1

B8: humanized anti-C1q antibody VH3/Vκ4 (antibody, human IgG4)
heavy: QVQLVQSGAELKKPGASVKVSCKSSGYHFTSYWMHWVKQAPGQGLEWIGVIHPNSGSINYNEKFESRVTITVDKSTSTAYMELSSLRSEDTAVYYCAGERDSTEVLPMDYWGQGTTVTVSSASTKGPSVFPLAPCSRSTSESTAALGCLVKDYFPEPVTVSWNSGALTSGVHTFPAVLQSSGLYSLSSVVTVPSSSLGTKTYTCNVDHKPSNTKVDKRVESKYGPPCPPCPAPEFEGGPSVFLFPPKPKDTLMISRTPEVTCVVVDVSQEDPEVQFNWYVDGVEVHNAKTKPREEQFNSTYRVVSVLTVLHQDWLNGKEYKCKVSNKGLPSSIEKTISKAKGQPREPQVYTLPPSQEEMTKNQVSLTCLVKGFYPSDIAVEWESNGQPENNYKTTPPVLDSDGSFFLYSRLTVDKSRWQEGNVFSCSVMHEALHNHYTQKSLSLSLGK
light: DIQLTQSPSSLSASLGERATINCRASKSINKYLAWYQQKPGKAPKLLIYSGSTLQSGIPARFSGSGSGTDFTLTISSLEPEDFAMYYCQQHNEYPLTFGQGTKLEIK
notes: Full-length human IgG4 (S241P L248E) / human kappa, expressed in NS0, Protein A purified; also called 3F1; not shown: human kappa light chain constant region
- Relative IC50 [6]: 1.91 ratio to chimeric M1
- IC50 (read off the curve) [7]: ~6 µg/mL
- amount of antibody required to inhibit approximately 50% to approximately 80% of rat CH50 hemolysis [8]: ~60 ng
- Relative IC50 [2]: 0.83 ratio to chimeric M1
- IC50 (read off the curve) [4]: ~0.3 µg/mL

B9: humanized anti-C1q antibody VH4/Vκ1 (antibody, human IgG4)
heavy: not shown
light: DVQITQSPSYLAASLGERATINCRASKSINKYLAWYQQKPGKTNKLLIYSGSTLQSGIPARFSGSGSGTDFTLTISSLEPEDFAMYYCQQHNEYPLTFGQGTKLEIK
notes: as for B1
- Relative IC50 [2]: 1.03 ratio to chimeric M1
- IC50 (read off the curve) [3]: ~0.3 µg/mL

B10: humanized anti-C1q antibody VH1/Vκ3 (antibody, human IgG4)
heavy: not shown
light: DVQITQSPSSLSASLGERATINCRASKSINKYLAWYQQKPGKAPKLLIYSGSTLQSGIPARFSGSGSGTDFTLTISSLEPEDFAMYYCQQHNEYPLTFGQGTKLEIK
notes: as for B1
- IC50 (read off the curve) [5]: ~0.3 µg/mL
- Relative IC50 [2]: 0.91 ratio to chimeric M1

B11: humanized anti-C1q antibody VH1/Vκ1 (antibody, human IgG4)
heavy: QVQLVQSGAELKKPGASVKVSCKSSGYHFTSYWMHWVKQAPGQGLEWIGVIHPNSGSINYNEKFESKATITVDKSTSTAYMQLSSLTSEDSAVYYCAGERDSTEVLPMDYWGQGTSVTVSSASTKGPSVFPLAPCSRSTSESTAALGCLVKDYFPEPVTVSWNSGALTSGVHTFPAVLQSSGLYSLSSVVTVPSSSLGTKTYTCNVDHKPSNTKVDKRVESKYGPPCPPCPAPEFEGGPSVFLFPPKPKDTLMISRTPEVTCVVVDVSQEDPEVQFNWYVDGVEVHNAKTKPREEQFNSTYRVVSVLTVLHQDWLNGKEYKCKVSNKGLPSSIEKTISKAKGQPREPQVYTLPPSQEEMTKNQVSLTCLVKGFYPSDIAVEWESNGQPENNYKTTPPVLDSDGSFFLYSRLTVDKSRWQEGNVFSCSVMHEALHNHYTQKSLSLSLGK
light: DVQITQSPSYLAASLGERATINCRASKSINKYLAWYQQKPGKTNKLLIYSGSTLQSGIPARFSGSGSGTDFTLTISSLEPEDFAMYYCQQHNEYPLTFGQGTKLEIK
notes: Full-length human IgG4 (S241P L248E) / human kappa, expressed in NS0, Protein A purified; also called 2B12; not shown: human kappa light chain constant region
- Relative IC50 [6]: 1.62 ratio to chimeric M1
- IC50 (read off the curve) [5]: ~0.3 µg/mL
- IC50 (read off the curve) [7]: ~5 µg/mL
- amount of antibody required to inhibit approximately 50% to approximately 80% of rat CH50 hemolysis [8]: ~60 ng
- amount of antibody required to inhibit 50% of human CH50 hemolysis [9]: ~60 ng
- Relative IC50 [2]: 0.9 ratio to chimeric M1

B12: humanized anti-C1q antibody VH4/Vκ3 (antibody, human IgG4)
heavy: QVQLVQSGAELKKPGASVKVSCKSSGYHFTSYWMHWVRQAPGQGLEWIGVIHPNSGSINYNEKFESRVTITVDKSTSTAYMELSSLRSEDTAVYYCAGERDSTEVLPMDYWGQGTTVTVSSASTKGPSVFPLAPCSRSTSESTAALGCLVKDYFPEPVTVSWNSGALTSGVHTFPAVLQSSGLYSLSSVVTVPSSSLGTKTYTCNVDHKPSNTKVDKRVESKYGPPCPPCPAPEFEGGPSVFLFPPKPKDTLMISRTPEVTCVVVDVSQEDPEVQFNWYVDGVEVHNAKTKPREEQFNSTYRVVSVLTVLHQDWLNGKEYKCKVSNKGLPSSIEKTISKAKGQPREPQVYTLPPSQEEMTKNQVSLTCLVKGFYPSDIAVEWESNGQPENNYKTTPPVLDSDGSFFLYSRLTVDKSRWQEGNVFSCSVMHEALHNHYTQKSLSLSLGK
light: DVQITQSPSSLSASLGERATINCRASKSINKYLAWYQQKPGKAPKLLIYSGSTLQSGIPARFSGSGSGTDFTLTISSLEPEDFAMYYCQQHNEYPLTFGQGTKLEIK
notes: Full-length human IgG4 (S241P L248E) / human kappa, expressed in NS0, Protein A purified; also called 1D3; not shown: human kappa light chain constant region
- Relative IC50 [6]: 1.84 ratio to chimeric M1
- IC50 (read off the curve) [7]: ~6 µg/mL
- amount of antibody required to inhibit approximately 50% to approximately 80% of rat CH50 hemolysis [8]: ~60 ng
- amount of antibody required to inhibit 50% of human CH50 hemolysis [9]: ~60 ng
- Relative IC50 [2]: 0.77 ratio to chimeric M1
- IC50 (read off the curve) [3]: ~0.2 µg/mL

B13: humanized anti-C1q antibody VH2/Vκ4 (antibody, human IgG4)
heavy: not shown
light: DIQLTQSPSSLSASLGERATINCRASKSINKYLAWYQQKPGKAPKLLIYSGSTLQSGIPARFSGSGSGTDFTLTISSLEPEDFAMYYCQQHNEYPLTFGQGTKLEIK
notes: as for B1
- IC50 (read off the curve) [1]: ~0.2 µg/mL
- Relative IC50 [2]: 0.72 ratio to chimeric M1

B14: humanized anti-C1q antibody VH4/Vκ4 (antibody, human IgG4)
heavy: not shown
light: DIQLTQSPSSLSASLGERATINCRASKSINKYLAWYQQKPGKAPKLLIYSGSTLQSGIPARFSGSGSGTDFTLTISSLEPEDFAMYYCQQHNEYPLTFGQGTKLEIK
notes: as for B1
- Relative IC50 [2]: 0.92 ratio to chimeric M1
- IC50 (read off the curve) [3]: ~0.2 µg/mL

B15: humanized anti-C1q antibody VH2/Vκ1 (antibody, human IgG4)
heavy: not shown
light: DVQITQSPSYLAASLGERATINCRASKSINKYLAWYQQKPGKTNKLLIYSGSTLQSGIPARFSGSGSGTDFTLTISSLEPEDFAMYYCQQHNEYPLTFGQGTKLEIK
notes: as for B1
- IC50 (read off the curve) [1]: ~0.3 µg/mL
- Relative IC50 [2]: 1.15 ratio to chimeric M1
